This is an account of results in the array DNA melting data of Ke et al..

This data set in a line: melting temperature; melt of duplexes. The note with it: sodium 0.0675 M; strand 1 µM.
For orientation: Tm means the temperature at the midpoint of the melting transition. Consider “CGACGTGCTTAATGTGCTG+CAGCACATAGTGCACGTCG ((((((((...((((((((+))))))))...))))))))”, for which the melting temperature (Tm) amounted to 44 °C.

Turning to “CGACGTGCGCTATGTGCTG+CAGCACATCACGCACGTCG (((((((((..((((((((+))))))))..)))))))))”, the midpoint of thermal melting (Tm) came out at 53.3 °C.

As for “CGACGTGCAGCATGTGCTG+CAGCACATATAGCACGTCG ((((((((...((((((((+))))))))...))))))))”, the midpoint of thermal melting (Tm) worked out at 46.3 °C.

On to “CGACGTGCCCGATGTGCTG+CAGCACATGTCGCACGTCG ((((((((...((((((((+))))))))...))))))))”, for which the melting temperature (Tm) was found to be 48.4 °C.

Take “CGACGTGCGTTATGTGCTG+CAGCACATCACGCACGTCG ((((((((((.((((((((+)))))))).))))))))))”: the Tm is 56.8 °C.

Take “CGACGTGCTAAATGTGCTG+CAGCACATTTCGCACGTCG ((((((((.((((((((((+)))))))))).))))))))”: the Tm is 55.3 °C.

Take “CGACGTGCATTATGTGCTG+CAGCACATGGCGCACGTCG ((((((((...((((((((+))))))))...))))))))”: the melting temperature (Tm) came out at 48.4 °C.

On to “CGACGTGCACCATGTGCTG+CAGCACATTTTGCACGTCG (((((((((..((((((((+))))))))..)))))))))”, for which the midpoint of thermal melting (Tm) was found to be 46.7 °C.

Regarding “CGACGTGCGGCATGTGCTG+CAGCACATAAGGCACGTCG ((((((((...((((((((+))))))))...))))))))”, the midpoint of thermal melting (Tm) turned out to be 51.3 °C.

Take “CGACGTGCGAGATGTGCTG+CAGCACATCTAGCACGTCG ((((((((.((((((((((+)))))))))).))))))))”: the melting temperature (Tm) came to 59.7 °C.

Turning to “CGACGTGCTTTATGTGCTG+CAGCACATCGTGCACGTCG ((((((((...((((((((+))))))))...))))))))”, the midpoint of thermal melting (Tm) is 42.3 °C.

As to “CGACGTGCTTAATGTGCTG+CAGCACATCAGGCACGTCG ((((((((.(.((((((((+)))))))).).))))))))”, the melting temperature (Tm) was found to be 50.8 °C.

With “CGACGTGCCAGATGTGCTG+CAGCACATGAAGCACGTCG ((((((((...((((((((+))))))))...))))))))”, the Tm was found to be 50.5 °C.

Regarding “CGACGTGCATTATGTGCTG+CAGCACATAAAGCACGTCG ((((((((.((((((((((+)))))))))).))))))))”, the midpoint of thermal melting (Tm) came out at 54.6 °C.

For the substance “CGACGTGCCCAATGTGCTG+CAGCACATTGAGCACGTCG ((((((((.((((((((((+)))))))))).))))))))”, the Tm worked out at 57.6 °C.

As to “CGACGTGCCACATGTGCTG+CAGCACATATAGCACGTCG ((((((((.(.((((((((+)))))))).).))))))))”, the Tm came to 48.4 °C.

For the substance “CGACGTGCGAAATGTGCTG+CAGCACATTGCGCACGTCG (((((((((.(((((((((+))))))))).)))))))))”, the melting temperature (Tm) came out at 60.2 °C.

Turning to “CGACGTGCAAAATGTGCTG+CAGCACATGTAGCACGTCG ((((((((.(.((((((((+)))))))).).))))))))”, the Tm was determined as 53.1 °C.

In the case of “CGACGTGCCCCATGTGCTG+CAGCACATAGAGCACGTCG ((((((((.(.((((((((+)))))))).).))))))))”, the Tm turned out to be 48.7 °C.

Turning to “CGACGTGCGTCATGTGCTG+CAGCACATTTGGCACGTCG ((((((((...((((((((+))))))))...))))))))”, the midpoint of thermal melting (Tm) was 48.7 °C.

Take “CGACGTGCGGGATGTGCTG+CAGCACATATTGCACGTCG ((((((((...((((((((+))))))))...))))))))”: the midpoint of thermal melting (Tm) came to 51.4 °C.

Consider “CGACGTGCTATATGTGCTG+CAGCACATTCTGCACGTCG ((((((((...((((((((+))))))))...))))))))”, for which the melting temperature (Tm) worked out at 49 °C.

“CGACGTGCACGATGTGCTG+CAGCACATCAAGCACGTCG ((((((((..(((((((((+)))))))))..))))))))”: the Tm was determined as 51.2 °C.

Take “CGACGTGCAGAATGTGCTG+CAGCACATATCGCACGTCG ((((((((...((((((((+))))))))...))))))))”: the Tm came out at 50.9 °C.

As for “CGACGTGCCTGATGTGCTG+CAGCACATAAGGCACGTCG ((((((((((.((((((((+)))))))).))))))))))”, the Tm stood at 59 °C.

As for “CGACGTGCAGGATGTGCTG+CAGCACATTCAGCACGTCG ((((((((.(.((((((((+)))))))).).))))))))”, the Tm amounted to 54.1 °C.

Regarding “CGACGTGCGGAATGTGCTG+CAGCACATACGGCACGTCG ((((((((.(.((((((((+)))))))).).))))))))”, the melting temperature (Tm) amounted to 53.3 °C.

As for “CGACGTGCCTCATGTGCTG+CAGCACATCCCGCACGTCG ((((((((...((((((((+))))))))...))))))))”, the Tm came to 46.5 °C.

For “CGACGTGCTGCATGTGCTG+CAGCACATGAGGCACGTCG ((((((((..(((((((((+)))))))))..))))))))”, the Tm turned out to be 56.8 °C.

In the case of “CGACGTGCACTATGTGCTG+CAGCACATTGCGCACGTCG ((((((((.(.((((((((+)))))))).).))))))))”, the Tm was determined as 48.8 °C.

Consider “CGACGTGCTGCATGTGCTG+CAGCACATCTAGCACGTCG (((((((((..((((((((+))))))))..)))))))))”, for which the midpoint of thermal melting (Tm) came to 52.4 °C.

Consider “CGACGTGCGAGATGTGCTG+CAGCACATAAGGCACGTCG ((((((((...((((((((+))))))))...))))))))”, for which the midpoint of thermal melting (Tm) was determined as 51.1 °C.

Turning to “CGACGTGCGTGATGTGCTG+CAGCACATGCCGCACGTCG (((((((((..((((((((+))))))))..)))))))))”, the Tm amounted to 54.7 °C.

“CGACGTGCTACATGTGCTG+CAGCACATTCCGCACGTCG ((((((((...((((((((+))))))))...))))))))”: the Tm was 47.2 °C.

“CGACGTGCAGAATGTGCTG+CAGCACATTACGCACGTCG ((((((((..(((((((((+)))))))))..))))))))”: the Tm came out at 52.7 °C.

For “CGACGTGCTCGATGTGCTG+CAGCACATGTAGCACGTCG (((((((((..((((((((+))))))))..)))))))))”, the Tm was determined as 52.3 °C.

For the substance “CGACGTGCTTCATGTGCTG+CAGCACATAACGCACGTCG ((((((((.(.((((((((+)))))))).).))))))))”, the Tm is 49.3 °C.

For the substance “CGACGTGCGGGATGTGCTG+CAGCACATCGGGCACGTCG ((((((((..(((((((((+)))))))))..))))))))”, the Tm is 56.1 °C.

For “CGACGTGCGAAATGTGCTG+CAGCACATTGTGCACGTCG ((((((((..(((((((((+)))))))))..))))))))”, the Tm turned out to be 52.4 °C.

“CGACGTGCCCCATGTGCTG+CAGCACATTAAGCACGTCG ((((((((...((((((((+))))))))...))))))))”: the Tm is 47.2 °C.

Consider “CGACGTGCGCGATGTGCTG+CAGCACATCGGGCACGTCG ((((((((.((((((((((+)))))))))).))))))))”, for which the Tm was 63.6 °C.

For “CGACGTGCTGTATGTGCTG+CAGCACATACAGCACGTCG (((((((((((((((((((+)))))))))))))))))))”, the Tm was determined as 62.1 °C.

“CGACGTGCTATATGTGCTG+CAGCACATAATGCACGTCG ((((((((..(((((((((+)))))))))..))))))))”: the melting temperature (Tm) was determined as 53 °C.

With “CGACGTGCTCGATGTGCTG+CAGCACATCCGGCACGTCG ((((((((..(((((((((+)))))))))..))))))))”, the melting temperature (Tm) is 53.7 °C.

Consider “CGACGTGCACCATGTGCTG+CAGCACATAAGGCACGTCG ((((((((...((((((((+))))))))...))))))))”, for which the Tm is 44.1 °C.

In the case of “CGACGTGCGAAATGTGCTG+CAGCACATGTCGCACGTCG ((((((((((.((((((((+)))))))).))))))))))”, the Tm turned out to be 58.9 °C.

Turning to “CGACGTGCTCGATGTGCTG+CAGCACATAGCGCACGTCG ((((((((.(.((((((((+)))))))).).))))))))”, the Tm stood at 51.6 °C.

Turning to “CGACGTGCATTATGTGCTG+CAGCACATCGAGCACGTCG ((((((((...((((((((+))))))))...))))))))”, the Tm was determined as 47.4 °C.

Consider “CGACGTGCCGGATGTGCTG+CAGCACATTGCGCACGTCG ((((((((...((((((((+))))))))...))))))))”, for which the melting temperature (Tm) was determined as 49.9 °C.

For “CGACGTGCGCAATGTGCTG+CAGCACATCTTGCACGTCG ((((((((...((((((((+))))))))...))))))))”, the melting temperature (Tm) was 48.7 °C.

Take “CGACGTGCGCAATGTGCTG+CAGCACATAATGCACGTCG ((((((((...((((((((+))))))))...))))))))”: the Tm is 50.5 °C.

Take “CGACGTGCGGCATGTGCTG+CAGCACATCCTGCACGTCG ((((((((.(.((((((((+)))))))).).))))))))”: the midpoint of thermal melting (Tm) was found to be 53.4 °C.

Turning to “CGACGTGCACAATGTGCTG+CAGCACATAAAGCACGTCG ((((((((...((((((((+))))))))...))))))))”, the Tm is 47.4 °C.

For the substance “CGACGTGCCAAATGTGCTG+CAGCACATCATGCACGTCG ((((((((...((((((((+))))))))...))))))))”, the Tm was 48.3 °C.

For “CGACGTGCCAAATGTGCTG+CAGCACATATCGCACGTCG ((((((((.(.((((((((+)))))))).).))))))))”, the Tm amounted to 47.2 °C.

Regarding “CGACGTGCTATATGTGCTG+CAGCACATGATGCACGTCG ((((((((...((((((((+))))))))...))))))))”, the midpoint of thermal melting (Tm) came to 51.9 °C.

As for “CGACGTGCGTCATGTGCTG+CAGCACATTCCGCACGTCG (((((((((..((((((((+))))))))..)))))))))”, the melting temperature (Tm) came to 52.8 °C.

Consider “CGACGTGCATAATGTGCTG+CAGCACATTCCGCACGTCG ((((((((..(((((((((+)))))))))..))))))))”, for which the midpoint of thermal melting (Tm) is 50.2 °C.

On to “CGACGTGCTTAATGTGCTG+CAGCACATGCTGCACGTCG ((((((((...((((((((+))))))))...))))))))”, for which the midpoint of thermal melting (Tm) worked out at 49.1 °C.

Consider “CGACGTGCTAGATGTGCTG+CAGCACATCGAGCACGTCG (((((((((.(((((((((+))))))))).)))))))))”, for which the melting temperature (Tm) was 59.7 °C.

“CGACGTGCCGGATGTGCTG+CAGCACATGCAGCACGTCG ((((((((.(.((((((((+)))))))).).))))))))”: the Tm amounted to 53.1 °C.

Turning to “CGACGTGCGGGATGTGCTG+CAGCACATTTGGCACGTCG ((((((((...((((((((+))))))))...))))))))”, the Tm turned out to be 51.3 °C.

Turning to “CGACGTGCCTGATGTGCTG+CAGCACATATAGCACGTCG ((((((((...((((((((+))))))))...))))))))”, the Tm was 49.8 °C.

Take “CGACGTGCCCGATGTGCTG+CAGCACATCGTGCACGTCG ((((((((.((((((((((+)))))))))).))))))))”: the Tm is 57.1 °C.

As to “CGACGTGCGCCATGTGCTG+CAGCACATAATGCACGTCG ((((((((...((((((((+))))))))...))))))))”, the melting temperature (Tm) was determined as 48.6 °C.

Regarding “CGACGTGCCGGATGTGCTG+CAGCACATATCGCACGTCG ((((((((...((((((((+))))))))...))))))))”, the Tm was found to be 49.7 °C.
